Read-outs that look alike come from different tables or passages of the source.

What all share (test): EMSA
In general terms: A gel shift assay detects complexes by their altered migration in electrophoresis.

Series [1] deals with T1, Dna2 (hDna2) (human, UniProt P51530 1-1060).
T1 sequence: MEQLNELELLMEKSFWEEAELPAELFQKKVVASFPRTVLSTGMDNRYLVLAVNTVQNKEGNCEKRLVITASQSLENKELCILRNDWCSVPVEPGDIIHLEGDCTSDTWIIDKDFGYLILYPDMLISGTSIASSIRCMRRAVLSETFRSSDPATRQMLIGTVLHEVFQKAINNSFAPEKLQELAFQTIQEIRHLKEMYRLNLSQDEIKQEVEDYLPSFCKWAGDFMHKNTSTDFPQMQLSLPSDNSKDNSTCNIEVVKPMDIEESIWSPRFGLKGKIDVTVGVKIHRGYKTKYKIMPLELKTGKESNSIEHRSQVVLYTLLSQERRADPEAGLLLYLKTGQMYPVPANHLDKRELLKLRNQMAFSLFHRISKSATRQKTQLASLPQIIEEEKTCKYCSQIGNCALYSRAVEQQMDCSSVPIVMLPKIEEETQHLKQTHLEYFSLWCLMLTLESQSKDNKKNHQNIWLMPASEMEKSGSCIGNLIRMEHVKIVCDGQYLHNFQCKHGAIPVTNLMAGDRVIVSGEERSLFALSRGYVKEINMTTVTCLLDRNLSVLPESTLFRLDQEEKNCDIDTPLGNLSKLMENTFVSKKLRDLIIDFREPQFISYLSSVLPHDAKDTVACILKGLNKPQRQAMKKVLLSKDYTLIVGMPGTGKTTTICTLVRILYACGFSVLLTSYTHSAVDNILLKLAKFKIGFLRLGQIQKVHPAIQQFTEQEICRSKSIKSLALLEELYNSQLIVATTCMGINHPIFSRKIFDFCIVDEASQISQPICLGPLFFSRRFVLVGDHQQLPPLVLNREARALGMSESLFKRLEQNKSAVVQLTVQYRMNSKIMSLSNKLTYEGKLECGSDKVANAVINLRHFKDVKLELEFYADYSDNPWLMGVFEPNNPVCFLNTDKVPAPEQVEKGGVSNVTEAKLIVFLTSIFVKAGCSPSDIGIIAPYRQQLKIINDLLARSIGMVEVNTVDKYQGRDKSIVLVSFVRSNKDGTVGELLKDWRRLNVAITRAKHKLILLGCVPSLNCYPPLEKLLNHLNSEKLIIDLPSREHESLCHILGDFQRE

Series [2] addresses T2, FEN1 (hFEN1) (human, UniProt P39748 1-380).
Series [3] deals with Dna2 (hDna2);FEN1 (hFEN1) (human;human, UniProt P51530;P39748 1-1060;1-380, |).
Dna2 (hDna2);FEN1 (hFEN1), sequence (P39748 whole entry, one chain of several): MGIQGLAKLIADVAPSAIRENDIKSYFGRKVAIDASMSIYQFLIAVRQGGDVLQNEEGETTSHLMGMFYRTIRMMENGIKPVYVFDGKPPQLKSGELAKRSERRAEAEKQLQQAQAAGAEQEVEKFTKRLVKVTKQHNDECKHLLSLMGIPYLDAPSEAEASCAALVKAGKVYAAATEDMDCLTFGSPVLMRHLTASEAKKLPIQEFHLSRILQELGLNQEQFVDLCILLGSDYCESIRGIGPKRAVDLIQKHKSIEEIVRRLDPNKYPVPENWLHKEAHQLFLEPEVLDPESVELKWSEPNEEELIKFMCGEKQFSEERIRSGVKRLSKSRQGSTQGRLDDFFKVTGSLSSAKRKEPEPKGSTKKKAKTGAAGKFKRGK
The target in series [4] is T1, Dna2 (hDna2). This is another data set of the same source.
The target of series [5] is T1, Dna2 (hDna2). The source holds these as a separate data set.
In series [6] the target is T1, Dna2 (hDna2). The source holds these as a separate data set.
Series [7] concerns the target T2, FEN1 (hFEN1). The source holds these as a separate data set.
The target of series [8] is T1, Dna2 (hDna2). This is another data set of the same source.
Series [9] deals with T1, Dna2 (hDna2). The source holds these as a separate data set.
Series [10] deals with T2, FEN1 (hFEN1). This is another data set of the same source.

T2 sequence (P39748 whole entry): as the sequence (P39748 whole entry, one chain of several) above

B1: 30 nt double flap (U2:T3:D2.30) (mixed)
DNA 1: TTCTACTTCCAATTGATACGCGCTATAACCCCCGTCCACCCGACGCCACCTCCTGC
DNA 2: GCAGGAGGTGGCGTCGGGTGGACGGGATTGAAATTTAGGCTGGCACGGTCG
DNA 3: CGACCGTGCCAGCCTAAATTTCAATT
B1: the binding result (in the series with Dna2 (hDna2) [1]; in the series with FEN1 (hFEN1) [2]; in series [3]) was “binds” each time.

B2: 30 nt flap, 5 nt gap (U3:T3:D2.30) (mixed)
DNA 1: B1 DNA 1
DNA 2: B1 DNA 2
DNA 3: CGACCGTGCCAGCCTAAATT
Consider B2, for which the binding result with Dna2 (hDna2) [4] was “binds”.

B3: 30 nt flap, 2 nt gap (U4:T3:D2.30) (mixed)
DNA 1: B1 DNA 1
DNA 2: B1 DNA 2
DNA 3: CGACCGTGCCAGCCTAAATTTCA
Consider B3, for which, in the series with Dna2 (hDna2) [5], the binding result was “binds”.

B4: 30 nt 5'-tail (T4:D2.30) (mixed)
DNA 1: B1 DNA 1
DNA 2: GCAGGAGGTGGCGTCGGGTGGACGGG
Consider B4, for which the binding result is listed as “binds” with Dna2 (hDna2) [6] and “no binding” with FEN1 (hFEN1) [7].

B5: 15 nt 5'-tail (T4:D2.15) (mixed)
DNA 1: ATACGCGCTATAACCCCCGTCCACCCGACGCCACCTCCTGC
DNA 2: GCAGGAGGTGGCGTCGGGTGGACGGG
On to B5, for which the binding result with FEN1 (hFEN1) [7] is “no binding”.

B6: 2 nt double flap (U1:T1:D1.2) (mixed)
DNA 1: GTCGTTTTACAACGACGTGACTGGG
DNA 2: GCCCAGTCACGTCGTTGTAAAACGGGTCGTGACTGGGAAAACCCTGGCG
DNA 3: CGCCAGGGTTTTCCCAGTCACGACCA
As to B6, the binding result with Dna2 (hDna2) [8] was “no binding”.

B7: 30 nt double flap (U1:T1:D1.30) (mixed)
DNA 1: TTCACGCCTGTTAGTTAATTCACTGGCCGTCGTTTTACAACGACGTGACTGGG
DNA 2: B6 DNA 2
DNA 3: CGCCAGGGTTTTCCCAGTCACGACCA
With B7, the binding result with Dna2 (hDna2) [9] and in the series with FEN1 (hFEN1) [10] was “binds” throughout.

B8: 15 nt double flap (U1:T1:D1.15) (mixed)
DNA 1: TAATTCACTGGCCGTCGTTTTACAACGACGTGACTGGG
DNA 2: B6 DNA 2
DNA 3: CGCCAGGGTTTTCCCAGTCACGACCA
B8: the binding result with FEN1 (hFEN1) [10] is “binds”.

B9: 5 nt double flap (U1:T1:D1.5) (mixed)
DNA 1: GCCGTCGTTTTACAACGACGTGACTGGG
DNA 2: B6 DNA 2
DNA 3: CGCCAGGGTTTTCCCAGTCACGACCA
In the case of B9, the figures for the binding result with Dna2 (hDna2) [8] and with FEN1 (hFEN1) [10] were “no binding” and “binds”, respectively.

B10: 20 nt double flap (U1:T1:D1.20) (mixed)
DNA 1: TTAGTTAATTCACTGGCCGTCGTTTTACAACGACGTGACTGGG
DNA 2: B6 DNA 2
DNA 3: CGCCAGGGTTTTCCCAGTCACGACCA
On to B10, for which the binding result with FEN1 (hFEN1) [10] was “binds”.

B11: 10 nt double flap (U1:T1:D1.10) (mixed)
DNA 1: CACTGGCCGTCGTTTTACAACGACGTGACTGGG
DNA 2: B6 DNA 2
DNA 3: CGCCAGGGTTTTCCCAGTCACGACCA
For B11, the binding result with FEN1 (hFEN1) [10] is listed as “binds”.
